In article PMC10397247:
Values belong to the binder of their own block, whether it stands above or below them.

Columns and labels:
Assay in all cases: two-hybrid library CCNG1;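 further: natural log of median RNA to DNA barcode read ratio; higher means stronger binding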
4H918-bN = target: T1, 4H918-bN
T1 chain: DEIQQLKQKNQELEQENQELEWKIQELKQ

4H454-bH = target: T2, 4H454-bH
T2 chain: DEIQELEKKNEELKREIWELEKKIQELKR

4H338-bH = target: T3, 4H338-bH
T3 chain: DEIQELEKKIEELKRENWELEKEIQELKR

4H967-bH = target: T4, 4H967-bH
T4 chain: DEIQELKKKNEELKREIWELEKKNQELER

4H607-bH = target: T5, 4H607-bH
T5 chain: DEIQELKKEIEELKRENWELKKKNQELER

4H72-bH = target: T6, 4H72-bH
T6 chain: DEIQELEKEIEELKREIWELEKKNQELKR

4H2442-bH = target: T7, 4H2442-bH
T7 chain: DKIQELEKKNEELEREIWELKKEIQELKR

4H575-bA = target: T8, 4H575-bA
T8 chain: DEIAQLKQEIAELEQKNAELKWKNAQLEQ

4H2717-bN = target: T9, 4H2717-bN
T9 chain: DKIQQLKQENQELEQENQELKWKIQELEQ

4H462-bH = target: T10, 4H462-bH
T10 chain: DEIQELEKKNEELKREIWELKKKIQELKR

4H2610-bH = target: T11, 4H2610-bH
T11 chain: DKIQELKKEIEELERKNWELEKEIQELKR

4H3606-bH = target: T12, 4H3606-bH
T12 chain: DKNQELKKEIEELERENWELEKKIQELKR

O7-bN = target: T13, O7-bN
T13 chain: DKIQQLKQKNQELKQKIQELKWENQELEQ

4H3112-bH = target: T14, 4H3112-bH
T14 chain: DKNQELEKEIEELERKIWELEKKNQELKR

4H687-bH = target: T15, 4H687-bH
T15 chain: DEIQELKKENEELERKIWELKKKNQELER

4H2729-bH = target: T16, 4H2729-bH
T16 chain: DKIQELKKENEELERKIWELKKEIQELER

4H918-bH = target: T17, 4H918-bH
T17 chain: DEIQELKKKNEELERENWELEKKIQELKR

4H2697-bH = target: T18, 4H2697-bH
T18 chain: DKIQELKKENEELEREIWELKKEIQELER

4H883-bH = target: T19, 4H883-bH
T19 chain: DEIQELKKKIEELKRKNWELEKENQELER

4H953-bH = target: T20, 4H953-bH
T20 chain: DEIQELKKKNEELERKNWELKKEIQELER

4H331-bH = target: T21, 4H331-bH
T21 chain: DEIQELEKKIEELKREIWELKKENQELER

4H3855-bH = target: T22, 4H3855-bH
T22 chain: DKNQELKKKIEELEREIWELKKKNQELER

4H3354-bH = target: T23, 4H3354-bH
T23 chain: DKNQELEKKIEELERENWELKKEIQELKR

4H3427-bH = target: T24, 4H3427-bH
T24 chain: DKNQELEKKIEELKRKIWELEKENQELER

4H568-bH = target: T25, 4H568-bH
T25 chain: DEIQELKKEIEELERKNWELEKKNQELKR

4H717-bH = target: T26, 4H717-bH
T26 chain: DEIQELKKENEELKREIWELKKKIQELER

4H370-bH = target: T27, 4H370-bH
T27 chain: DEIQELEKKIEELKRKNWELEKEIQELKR

4H3782-bH = target: T28, 4H3782-bH
T28 chain: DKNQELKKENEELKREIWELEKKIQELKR

4H4001-bN = target: T29, 4H4001-bN
T29 chain: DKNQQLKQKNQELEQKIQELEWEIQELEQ

4H3843-bH = target: T30, 4H3843-bH
T30 chain: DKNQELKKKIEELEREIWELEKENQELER

4H4001-bH = target: T31, 4H4001-bH
T31 chain: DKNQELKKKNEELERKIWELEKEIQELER

4H2576-bH = target: T32, 4H2576-bH
T32 chain: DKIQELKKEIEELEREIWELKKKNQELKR

4H2618-bH = target: T33, 4H2618-bH
T33 chain: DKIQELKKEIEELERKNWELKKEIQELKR

4H3189-bH = target: T34, 4H3189-bH
T34 chain: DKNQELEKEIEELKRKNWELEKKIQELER

4H2667-bH = target: T35, 4H2667-bH
T35 chain: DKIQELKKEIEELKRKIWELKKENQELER

4H1845-bH = target: T36, 4H1845-bH
T36 chain: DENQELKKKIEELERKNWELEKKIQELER

4H754-bH = target: T37, 4H754-bH
T37 chain: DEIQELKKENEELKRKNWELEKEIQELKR

4H908-bH = target: T38, 4H908-bH
T38 chain: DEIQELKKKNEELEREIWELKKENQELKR

4H3185-bH = target: T39, 4H3185-bH
T39 chain: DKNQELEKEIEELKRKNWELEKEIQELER

4H797-bH = target: T40, 4H797-bH
T40 chain: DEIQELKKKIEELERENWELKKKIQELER

4H575-bH = target: T41, 4H575-bH; details: mean of both orientations
T41 chain: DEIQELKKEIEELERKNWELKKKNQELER

4H883-bA = target: T42, 4H883-bA
T42 chain: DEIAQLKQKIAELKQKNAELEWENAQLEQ

4H3907-bA = target: T43, 4H3907-bA
T43 chain: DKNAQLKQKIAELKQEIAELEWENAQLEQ

O3 = target: T44, O3
T44 chain: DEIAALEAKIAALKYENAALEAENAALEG

O4 = target: T45, O4
T45 chain: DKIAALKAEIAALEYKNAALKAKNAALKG

O6 = target: T46, O6
T46 chain: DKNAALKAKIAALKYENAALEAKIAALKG

O5 = target: T47, O5
T47 chain: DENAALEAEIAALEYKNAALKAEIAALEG

O16 = target: T48, O16
T48 chain: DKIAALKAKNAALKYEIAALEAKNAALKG

O12 = target: T49, O12
T49 chain: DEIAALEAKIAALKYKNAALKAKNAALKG

O9 = target: T50, O9
T50 chain: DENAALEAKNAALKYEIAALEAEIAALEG

O14 = target: T51, O14
T51 chain: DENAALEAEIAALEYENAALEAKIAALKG

O2 = target: T52, O2
T52 chain: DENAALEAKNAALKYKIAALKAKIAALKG

O8 = target: T53, O8
T53 chain: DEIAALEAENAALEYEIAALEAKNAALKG

O13 = target: T54, O13
T54 chain: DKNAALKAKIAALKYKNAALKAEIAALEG

O7 = target: T55, O7
T55 chain: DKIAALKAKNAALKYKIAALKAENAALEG

O15 = target: T56, O15
T56 chain: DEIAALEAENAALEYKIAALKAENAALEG

interaction score (4H918-bN): -1.11 | interaction score (4H454-bH): -0.0899 | interaction score (4H338-bH): -0.243 | interaction score (4H967-bH): -0.511 | interaction score (4H607-bH): -2.75 | interaction score (4H72-bH): 0.142 | interaction score (4H2442-bH): -0.237 | interaction score (4H575-bA): -1.1 | interaction score (4H2717-bN): -0.601 | interaction score (4H462-bH): -0.599 | interaction score (4H2610-bH): -0.549 | interaction score (4H3606-bH): 0.808 | interaction score (O7-bN): -0.332 | interaction score (4H3112-bH): -0.698 | interaction score (4H687-bH): -0.46 | interaction score (4H2729-bH): 0.473 | interaction score (4H918-bH): -0.512 | interaction score (4H2697-bH): 0.106 | interaction score (4H883-bH): 0.0604 | interaction score (4H953-bH): -0.598 | interaction score (4H331-bH): -1.2 | interaction score (4H3855-bH): -0.295 | interaction score (4H3354-bH): 0.334 | interaction score (4H3427-bH): -0.323 | interaction score (4H568-bH): -0.447 | interaction score (4H717-bH): 0.319 | interaction score (4H370-bH): -0.319 | interaction score (4H3782-bH): 0.165 | interaction score (4H4001-bN): -0.805 | interaction score (4H3843-bH): -0.224 | interaction score (4H4001-bH): -1.03 | interaction score (4H2576-bH): -1.7 | interaction score (4H2618-bH): -1.52 | interaction score (4H3189-bH): 0.462 | interaction score (4H2667-bH): 0.349 | interaction score (4H1845-bH): 0.142 | interaction score (4H754-bH): 0.391 | interaction score (4H908-bH): -1 | interaction score (4H3185-bH): 0.639 | interaction score (4H797-bH): 0.175
Binder: DENQELKKKIEELERKNWELEKKIQELER [4H1845-bH]

interaction score (4H454-bH): 1.64 | interaction score (4H338-bH): 0.526 | interaction score (4H967-bH): 0.424 | interaction score (4H72-bH): -2.01 | interaction score (4H2442-bH): 1.25 | interaction score (4H3112-bH): -0.123 | interaction score (4H687-bH): -0.163 | interaction score (4H2729-bH): 1.77 | interaction score (4H918-bH): -0.517 | interaction score (4H883-bH): 0.442 | interaction score (4H953-bH): 0.587 | interaction score (4H331-bH): -0.168 | interaction score (4H3855-bH): -1.1 | interaction score (4H3354-bH): 0.0703 | interaction score (4H3427-bH): -0.00664 | interaction score (4H568-bH): -0.0562 | interaction score (4H717-bH): 0.313 | interaction score (4H3782-bH): -0.566 | interaction score (4H4001-bH): -0.244 | interaction score (4H2576-bH): 0.27 | interaction score (4H2618-bH): 1.93 | interaction score (4H575-bH): 0.167 | interaction score (4H883-bA): -2.1 | interaction score (4H2667-bH): -0.37 | interaction score (4H754-bH): -0.751 | interaction score (4H908-bH): -0.628 | interaction score (4H3185-bH): -0.571 | interaction score (4H797-bH): -0.629 | interaction score (4H3907-bA): -1.28
Binder: DKIQELEKKNEELEREIWELKKEIQELKR [4H2442-bH]

interaction score (O3): 0.318 | interaction score (O4): -1.08 | interaction score (O6): -2.27 | interaction score (O5): -2.03 | interaction score (O16): -2.57 | interaction score (O12): -2.08 | interaction score (O9): -1.67 | interaction score (O14): -1.45 | interaction score (O2): -2.46 | interaction score (O8): -1.51 | interaction score (O13): -2.04 | interaction score (O7): -2.15 | interaction score (O15): -1.36
Binder: DEIAALEAKIAALKYKNAALKAKNAALKG [O12]
